B1: GST-tagged PALB2 WD40 domain (domain or fragment, UniProt Q86YC2 853-1186, looked up)
chain: GNLQLVSELKNPSGSCSVDVSAMFWERAGCKEPCIITACEDVVSLWKALDAWQWEKLYTWHFAEVPVLQIVPVPDVYNLVCVALGNLEIREIRALFCSSDDESEKQVLLKSGNIKAVLGLTKRRLVSSSGTLSDQQVEVMTFAEDGGGKENQFLMPPEETILTFAEVQGMQEALLGTTIMNNIVIWNLKTGQLLKKMHIDDSYQASVCHKAYSEMGLLFIVLSHPCAKESESLRSPVFQLIVINPKTTLSVGVMLYCLPPGQAGRFLEGDVKDHCAAAILTSGTIAIWDLLLGQCTALLPPVSDQHWSFVKWSGTDSHLLAGQKDGNIFVYHYS

Experiment [1] concerns the target T1, His-tagged CXorf67, recombinant (human, UniProt Q86X51 1-503).
T1 sequence (looked up): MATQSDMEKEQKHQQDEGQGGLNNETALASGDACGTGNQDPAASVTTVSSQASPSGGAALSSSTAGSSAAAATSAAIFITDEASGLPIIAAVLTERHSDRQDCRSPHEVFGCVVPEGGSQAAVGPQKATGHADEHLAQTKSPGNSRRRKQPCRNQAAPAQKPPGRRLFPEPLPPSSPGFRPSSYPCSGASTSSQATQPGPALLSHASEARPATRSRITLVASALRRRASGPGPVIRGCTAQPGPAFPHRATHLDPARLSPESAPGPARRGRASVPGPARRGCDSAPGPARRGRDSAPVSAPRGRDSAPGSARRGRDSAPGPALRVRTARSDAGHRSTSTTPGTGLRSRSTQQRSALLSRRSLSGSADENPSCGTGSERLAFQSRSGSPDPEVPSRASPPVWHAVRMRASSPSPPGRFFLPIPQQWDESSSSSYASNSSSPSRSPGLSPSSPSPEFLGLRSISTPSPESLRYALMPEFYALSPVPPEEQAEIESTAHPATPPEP
Kind of experiment: pull-down.

For experiment [2], the target named is B1. Briefly: pull-down.

Ends that are not written are not given here. * marks the point of attachment. Biotin = O=C1N[C@H]2[C@H](CS[C@H]2CCCCC(=O)*)N1

B1: the binding result in experiment [1] is given as “binds”.

B2: biotinylated WT C67 (420-432) peptide (peptide)
peptide: Biotin-GGPIPQQWDESSSSS
Consider B2, for which the binding result in experiment [2] is on record as “binds”.

These data come from PMC8455074 (Cancer cell, 2020).
